Assay results published in paper PMC9482650, “Quantitative fragmentomics allow affinity mapping of interactomes” (Nature Communications, 2022).

Experiments:
Experiment in all cases: holdup assay
Set-up in all cases: key: below the threshold = too weak to quantify, mostly under pKd 3.1 to 4
MAGI2_4, Q86UL8 = molecular target: MAGI2_4, Q86UL8
NHERF4_2, Q86UT5 = molecular target: NHERF4_2, Q86UT5
LNX1_3, Q8TBB1 = molecular target: LNX1_3, Q8TBB1
LIMK2, P53671 = molecular target: LIMK2, P53671
NHERF3_4, Q5T2W1 = molecular target: T1, NHERF3_4, Q5T2W1
T1 sequence (Q5T2W1 373-468, limits assumed, looked up): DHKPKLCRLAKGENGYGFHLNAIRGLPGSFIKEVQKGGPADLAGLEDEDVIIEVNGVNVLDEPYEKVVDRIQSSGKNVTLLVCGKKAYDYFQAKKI

GRIP2_7, Q9C0E4 = molecular target: GRIP2_7, Q9C0E4
GRIP2_7, Q9C0E4, sequence (Q9C0E4 934-1023): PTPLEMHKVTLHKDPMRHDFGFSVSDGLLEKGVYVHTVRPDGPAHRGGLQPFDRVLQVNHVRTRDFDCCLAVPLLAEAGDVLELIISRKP

AHNAK1, Q09666 = molecular target: AHNAK1, Q09666
AHNAK1, Q09666, sequence (Q09666 4-100): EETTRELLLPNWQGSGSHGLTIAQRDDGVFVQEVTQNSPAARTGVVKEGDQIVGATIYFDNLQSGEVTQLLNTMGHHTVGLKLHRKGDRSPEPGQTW

GRID2IP_2, A4D2P6 = molecular target: GRID2IP_2, A4D2P6
GRID2IP_2, A4D2P6, sequence (A4D2P6 272-370): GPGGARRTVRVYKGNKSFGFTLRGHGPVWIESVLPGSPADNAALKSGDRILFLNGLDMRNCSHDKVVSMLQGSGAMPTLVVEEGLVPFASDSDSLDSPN

MAGI2_6, Q86UL8 = molecular target: MAGI2_6, Q86UL8
MAGI2_6, Q86UL8, sequence (Q86UL8 1141-1229): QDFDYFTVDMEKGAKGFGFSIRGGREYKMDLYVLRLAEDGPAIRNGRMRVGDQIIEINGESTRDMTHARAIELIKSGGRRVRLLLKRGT

LIN7B, Q9HAP6 = molecular target: T2, LIN7B, Q9HAP6
T2 sequence (Q9HAP6 88-185, limits assumed, looked up): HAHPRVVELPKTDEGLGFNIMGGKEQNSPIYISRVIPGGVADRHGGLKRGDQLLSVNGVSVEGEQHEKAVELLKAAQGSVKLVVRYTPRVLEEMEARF

FRMPD2_2, Q68DX3 = molecular target: FRMPD2_2, Q68DX3
FRMPD2_2, Q68DX3, sequence (Q68DX3 944-1038): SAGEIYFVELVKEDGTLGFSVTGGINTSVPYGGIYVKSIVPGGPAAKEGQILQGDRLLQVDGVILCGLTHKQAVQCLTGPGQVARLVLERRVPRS

DLG4_2, P78352 = molecular target: DLG4_2, P78352
DLG4_2, P78352, sequence (P78352 155-259): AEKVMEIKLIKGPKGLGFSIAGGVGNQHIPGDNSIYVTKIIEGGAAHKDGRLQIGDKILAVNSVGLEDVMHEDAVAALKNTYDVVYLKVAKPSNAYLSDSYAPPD

DLG3_3, Q92796 = molecular target: T3, DLG3_3, Q92796
T3 sequence (Q92796 374-475, limits assumed, looked up): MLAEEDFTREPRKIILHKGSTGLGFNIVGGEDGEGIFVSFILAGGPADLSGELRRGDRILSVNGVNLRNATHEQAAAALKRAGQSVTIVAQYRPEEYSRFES

FRMPD4, Q14CM0 = molecular target: FRMPD4, Q14CM0
FRMPD4, Q14CM0, sequence (Q14CM0 67-160): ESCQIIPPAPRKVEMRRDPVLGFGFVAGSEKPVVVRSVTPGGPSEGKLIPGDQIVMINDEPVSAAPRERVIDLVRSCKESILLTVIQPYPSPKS

FRMPD2_1, Q68DX3 = molecular target: FRMPD2_1, Q68DX3
FRMPD2_1, Q68DX3, sequence (Q68DX3 770-861): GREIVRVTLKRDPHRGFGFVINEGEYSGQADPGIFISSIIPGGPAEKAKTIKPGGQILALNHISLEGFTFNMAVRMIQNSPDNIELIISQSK

PDZD2_2, O15018 = molecular target: T4, PDZD2_2, O15018
T4 sequence (O15018 329-429, limits assumed, looked up): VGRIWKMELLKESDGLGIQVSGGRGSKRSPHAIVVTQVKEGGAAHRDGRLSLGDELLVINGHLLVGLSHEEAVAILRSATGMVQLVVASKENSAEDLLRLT

GRIP1_4, Q9Y3R0 = molecular target: T5, GRIP1_4, Q9Y3R0
T5 sequence (Q9Y3R0 467-571, limits assumed, looked up): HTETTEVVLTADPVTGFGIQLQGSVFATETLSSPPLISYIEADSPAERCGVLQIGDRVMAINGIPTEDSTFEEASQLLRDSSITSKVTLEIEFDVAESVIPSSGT

APBA1_2, Q02410 = molecular target: T6, APBA1_2, Q02410
T6 sequence (Q02410 742-832, limits assumed, looked up): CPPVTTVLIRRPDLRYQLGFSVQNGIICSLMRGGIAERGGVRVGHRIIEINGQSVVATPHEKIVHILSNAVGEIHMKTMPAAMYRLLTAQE

SNTG2, Q9NY99 = molecular target: T7, SNTG2, Q9NY99
T7 sequence (Q9NY99 68-166, limits assumed, looked up): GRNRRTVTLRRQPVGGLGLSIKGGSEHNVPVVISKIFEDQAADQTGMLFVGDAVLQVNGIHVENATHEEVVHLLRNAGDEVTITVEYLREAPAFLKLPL

DLG1_2, Q12959 = molecular target: DLG1_2, Q12959
DLG1_2, Q12959, sequence (Q12959 314-412): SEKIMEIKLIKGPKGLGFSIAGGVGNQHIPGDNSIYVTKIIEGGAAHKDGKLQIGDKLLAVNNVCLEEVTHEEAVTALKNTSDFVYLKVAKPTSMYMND

MPDZ_12, O75970 = molecular target: T8, MPDZ_12, O75970
T8 sequence (O75970 1857-1958, limits assumed, looked up): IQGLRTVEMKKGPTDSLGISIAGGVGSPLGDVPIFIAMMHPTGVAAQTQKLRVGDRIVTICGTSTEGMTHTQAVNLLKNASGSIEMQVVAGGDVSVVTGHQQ

MPP2, Q14168 = molecular target: T9, MPP2, Q14168
T9 sequence (Q14168 180-250, limits assumed, looked up): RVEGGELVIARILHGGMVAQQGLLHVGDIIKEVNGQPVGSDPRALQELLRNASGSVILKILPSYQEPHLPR

SCRIB_3, Q14160 = molecular target: SCRIB_3, Q14160
SCRIB_3, Q14160, sequence (Q14160 999-1103): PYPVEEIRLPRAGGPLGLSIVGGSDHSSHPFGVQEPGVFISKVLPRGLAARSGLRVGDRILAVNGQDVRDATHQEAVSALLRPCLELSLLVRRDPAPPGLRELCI

PTPN13_1, Q12923 = molecular target: T10, PTPN13_1, Q12923
T10 sequence (Q12923 1088-1188, limits assumed, looked up): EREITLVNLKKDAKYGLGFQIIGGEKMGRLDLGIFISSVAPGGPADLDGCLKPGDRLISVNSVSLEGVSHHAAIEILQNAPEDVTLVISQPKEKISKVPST

NOS1, P29475 = molecular target: NOS1, P29475
NOS1, P29475, sequence (P29475 9-101): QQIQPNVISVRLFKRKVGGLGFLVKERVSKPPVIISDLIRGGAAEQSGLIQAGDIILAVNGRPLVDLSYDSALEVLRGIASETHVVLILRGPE

PARD3_3, Q8TEW0 = molecular target: PARD3_3, Q8TEW0
PARD3_3, Q8TEW0, sequence (Q8TEW0 582-685): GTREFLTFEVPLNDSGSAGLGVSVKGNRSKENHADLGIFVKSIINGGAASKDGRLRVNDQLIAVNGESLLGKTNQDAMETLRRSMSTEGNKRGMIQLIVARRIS

GRIP1_7, Q9Y3R0 = molecular target: T11, GRIP1_7, Q9Y3R0
T11 sequence (Q9Y3R0 999-1096, limits assumed, looked up): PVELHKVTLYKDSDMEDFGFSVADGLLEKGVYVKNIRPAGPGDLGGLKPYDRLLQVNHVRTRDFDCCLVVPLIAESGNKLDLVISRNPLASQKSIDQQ

[1] = plain residues with an end cap or a label only (N-terminal biotin on a linker: ttds)
[2] = plain residues with an end cap or a label only (N-terminal biotin on a linker: gsgsgs; C-terminal amide)
[3] = plain residues with an end cap or a label only (N-terminal biotin on a linker: ahx)

Measured: pKd

MAGI2_4, Q86UL8, sequence (Q86UL8 772-865): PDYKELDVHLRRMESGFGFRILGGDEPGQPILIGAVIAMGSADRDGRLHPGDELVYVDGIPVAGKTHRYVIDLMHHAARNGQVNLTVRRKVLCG
LNX1_3, Q8TBB1, sequence (Q8TBB1 500-596): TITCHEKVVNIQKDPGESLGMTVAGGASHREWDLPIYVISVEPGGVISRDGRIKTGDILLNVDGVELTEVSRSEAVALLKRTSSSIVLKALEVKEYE
NHERF4_2, Q86UT5, sequence (Q86UT5 220-308): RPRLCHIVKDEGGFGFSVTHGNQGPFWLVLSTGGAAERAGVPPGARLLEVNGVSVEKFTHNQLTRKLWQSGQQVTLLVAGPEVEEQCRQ
LIMK2, P53671, sequence (P53671 143-248): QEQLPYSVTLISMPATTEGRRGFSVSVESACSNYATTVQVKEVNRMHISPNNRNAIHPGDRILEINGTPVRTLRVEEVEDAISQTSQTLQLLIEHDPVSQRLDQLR

FHPLGADSQV [SLC2A1, P11166]
3.95: DLG4_2, P78352; [1]
below the threshold: MAGI2_4, Q86UL8; [1] | NHERF4_2, Q86UT5; [1] | LNX1_3, Q8TBB1; [1] | LIMK2, P53671; [1] | NHERF3_4, Q5T2W1; [1] | GRIP2_7, Q9C0E4; [1] | AHNAK1, Q09666; [1] | GRID2IP_2, A4D2P6; [1] | LIN7B, Q9HAP6; [1] | FRMPD2_2, Q68DX3; [1] | DLG3_3, Q92796; [1] | FRMPD4, Q14CM0; [1] | FRMPD2_1, Q68DX3; [1] | GRIP1_4, Q9Y3R0; [1] | APBA1_2, Q02410; [1] | SNTG2, Q9NY99; [1] | MPDZ_12, O75970; [1] | MPP2, Q14168; [1] | PTPN13_1, Q12923; [1] | PARD3_3, Q8TEW0; [1]
3.55: GRIP1_7, Q9Y3R0; [1]
3.99: MAGI2_6, Q86UL8; [1]
4.22: PDZD2_2, O15018; [1]
3.58: SCRIB_3, Q14160; [1]
3.88: DLG1_2, Q12959; [1]
3.49: NOS1, P29475; [1]

RPLPRKVSQL [DOCK4, Q8N1I0]
3.77: SNTG2, Q9NY99; [1]
3.94: DLG1_2, Q12959; [1]
3.97: APBA1_2, Q02410; [1]
4.72: SCRIB_3, Q14160; [1]
4.19: GRID2IP_2, A4D2P6; [1]
below the threshold: MAGI2_4, Q86UL8; [1] | NHERF4_2, Q86UT5; [1] | LNX1_3, Q8TBB1; [1] | LIMK2, P53671; [1] | NHERF3_4, Q5T2W1; [1] | GRIP2_7, Q9C0E4; [1] | AHNAK1, Q09666; [1] | MAGI2_6, Q86UL8; [1] | LIN7B, Q9HAP6; [1] | FRMPD2_2, Q68DX3; [1] | DLG4_2, P78352; [1] | DLG3_3, Q92796; [1] | FRMPD4, Q14CM0; [1] | FRMPD2_1, Q68DX3; [1] | PDZD2_2, O15018; [1] | GRIP1_4, Q9Y3R0; [1] | MPDZ_12, O75970; [1] | MPP2, Q14168; [1] | PTPN13_1, Q12923; [1] | NOS1, P29475; [1] | PARD3_3, Q8TEW0; [1] | GRIP1_7, Q9Y3R0; [1]

YGIVQETTFDLGGDIH [MLLT4_int, P55196]
4.06: DLG1_2, Q12959; [2]
4.61: SCRIB_3, Q14160; [2]
3.58: LIN7B, Q9HAP6; [2]
below the threshold: MAGI2_4, Q86UL8; [2] | NHERF4_2, Q86UT5; [2] | LNX1_3, Q8TBB1; [2] | LIMK2, P53671; [2] | NHERF3_4, Q5T2W1; [2] | GRIP2_7, Q9C0E4; [2] | AHNAK1, Q09666; [2] | GRID2IP_2, A4D2P6; [2] | MAGI2_6, Q86UL8; [2] | FRMPD2_2, Q68DX3; [2] | DLG4_2, P78352; [2] | DLG3_3, Q92796; [2] | FRMPD4, Q14CM0; [2] | FRMPD2_1, Q68DX3; [2] | PDZD2_2, O15018; [2] | GRIP1_4, Q9Y3R0; [2] | APBA1_2, Q02410; [2] | SNTG2, Q9NY99; [2] | MPDZ_12, O75970; [2] | MPP2, Q14168; [2] | PTPN13_1, Q12923; [2] | NOS1, P29475; [2] | PARD3_3, Q8TEW0; [2] | GRIP1_7, Q9Y3R0; [2]

RAVEEEESRF [PSCDBP, O60759]
4.09: PARD3_3, Q8TEW0; [3]
below the threshold: MAGI2_4, Q86UL8; [3] | NHERF4_2, Q86UT5; [3] | LNX1_3, Q8TBB1; [3] | LIMK2, P53671; [3] | NHERF3_4, Q5T2W1; [3] | GRIP2_7, Q9C0E4; [3] | AHNAK1, Q09666; [3] | GRID2IP_2, A4D2P6; [3] | MAGI2_6, Q86UL8; [3] | LIN7B, Q9HAP6; [3] | FRMPD2_2, Q68DX3; [3] | DLG4_2, P78352; [3] | DLG3_3, Q92796; [3] | FRMPD4, Q14CM0; [3] | FRMPD2_1, Q68DX3; [3] | PDZD2_2, O15018; [3] | GRIP1_4, Q9Y3R0; [3] | APBA1_2, Q02410; [3] | SNTG2, Q9NY99; [3] | DLG1_2, Q12959; [3] | MPDZ_12, O75970; [3] | MPP2, Q14168; [3] | SCRIB_3, Q14160; [3] | PTPN13_1, Q12923; [3] | GRIP1_7, Q9Y3R0; [3]
3.62: NOS1, P29475; [3]
